T1: recombinant human EpCAM (rhEpCAM), coated on ELISA plate (human, UniProt P16422 24-265)
T1 construct: Bought reagent
T1 sequence (looked up): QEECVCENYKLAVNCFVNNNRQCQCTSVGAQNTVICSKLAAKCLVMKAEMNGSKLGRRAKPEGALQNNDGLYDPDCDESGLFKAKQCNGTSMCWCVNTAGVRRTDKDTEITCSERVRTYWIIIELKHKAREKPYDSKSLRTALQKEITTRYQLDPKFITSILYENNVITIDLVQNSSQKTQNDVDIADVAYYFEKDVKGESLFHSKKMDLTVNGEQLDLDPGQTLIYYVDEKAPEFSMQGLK

T2: Fc-tagged EpCAM (R&D Systems, cat #960-EP-050), human, coupled to SPR chip (human, UniProt P16422 24-265)
T2 construct: Bought reagent; also called human EpCAM; EpCAM chip; not shown: Fc tag of the bought reagent
T2 sequence (looked up): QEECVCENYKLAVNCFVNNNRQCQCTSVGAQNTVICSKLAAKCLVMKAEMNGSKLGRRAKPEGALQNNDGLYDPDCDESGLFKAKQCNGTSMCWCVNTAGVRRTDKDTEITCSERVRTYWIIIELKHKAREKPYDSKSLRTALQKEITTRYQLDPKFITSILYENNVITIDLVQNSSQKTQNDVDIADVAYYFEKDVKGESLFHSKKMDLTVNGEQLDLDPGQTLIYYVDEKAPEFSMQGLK

T3: human EpCAM expressed on cells (CHO cells stably transfected with human EpCAM); EpCAM-positive human tumor … (human, UniProt P16422 24-314)
T3 sequence (looked up): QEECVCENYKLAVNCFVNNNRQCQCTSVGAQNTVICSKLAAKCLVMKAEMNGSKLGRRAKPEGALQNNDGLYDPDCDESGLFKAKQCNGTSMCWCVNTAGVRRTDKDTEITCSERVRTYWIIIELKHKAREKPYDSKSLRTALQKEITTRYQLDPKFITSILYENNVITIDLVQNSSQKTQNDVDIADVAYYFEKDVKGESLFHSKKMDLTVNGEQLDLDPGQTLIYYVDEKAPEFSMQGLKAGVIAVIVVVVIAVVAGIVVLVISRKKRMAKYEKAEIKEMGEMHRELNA


Key:
[1] = biological target: human CD3 on cells (CD3+ Jurkat cells; purified human CD3 positive T cells) (human, UniProt P07766 23-207); experiment: cell-based or functional assay
Sequence of human CD3 on cells (CD3+ Jurkat cells; purified human CD3 positive T cells) (P07766 23-207): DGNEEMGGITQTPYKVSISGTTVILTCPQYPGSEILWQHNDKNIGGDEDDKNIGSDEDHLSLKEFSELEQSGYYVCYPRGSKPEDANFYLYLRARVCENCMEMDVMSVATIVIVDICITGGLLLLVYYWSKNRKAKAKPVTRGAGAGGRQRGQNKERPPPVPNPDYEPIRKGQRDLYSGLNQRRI

[2] = biological target: T1, recombinant human EpCAM (rhEpCAM), …; experiment: sandwich ELISA: rhEpCAM coated, peroxidase-conjugated protein L detection
[3] = biological target: recombinant human CD3 epsilon & delta (rhCD3ε & δ), Creative BioMart cat #CD3E&CD3D-219H (human) (UniProt P07766); experiment: sandwich ELISA: rhCD3ε & δ coated, peroxidase-conjugated protein L detection
Sequence of recombinant human CD3 epsilon & delta (rhCD3ε & δ), Creative BioMart cat #CD3E&CD3D-219H (human) (P07766 23-126, stated change not applied, chain 1 of 2): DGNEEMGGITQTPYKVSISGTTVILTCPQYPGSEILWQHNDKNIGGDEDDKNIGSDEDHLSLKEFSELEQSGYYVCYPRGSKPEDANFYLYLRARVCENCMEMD
Sequence of recombinant human CD3 epsilon & delta (rhCD3ε & δ), Creative BioMart cat #CD3E&CD3D-219H (human) (P04234 22-105, stated change not applied, chain 2 of 2, further chain): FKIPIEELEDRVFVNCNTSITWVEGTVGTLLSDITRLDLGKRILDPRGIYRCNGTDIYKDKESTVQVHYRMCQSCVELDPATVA

[4] = biological target: recombinant human CD3 epsilon & delta (rhCD3ε & δ), Creative BioMart cat #CD3E&CD3D-219H (human) (UniProt P07766); experiment: SPR (Biacore 3000), His-tagged CD3εδ coupled to chip, ProTIA as analyte at 5-6 concentrations
[5] = biological target: T2, Fc-tagged EpCAM (R&D Systems, cat …); experiment: SPR (Biacore 3000), Fc-tagged EpCAM coupled to chip, ProTIA as analyte at 5-6 concentrations
[6] = biological target: T3, human EpCAM expressed on cells (CHO …); experiment: cell-based or functional assay
[7] = biological target: recombinant human CD3 epsilon & delta (rhCD3ε & δ), Creative BioMart cat #CD3E&CD3D-219H (human) (UniProt P07766); experiment: sandwich ELISA: rhCD3ε & δ coated, biotinylated anti-XTEN antibody detection

Binder | EC50, LDH release cytotoxicity, purified human CD3 positive T cells with OVCAR-3 cells 5:1 [1] [nM] | EC50, LDH release cytotoxicity, purified human CD3 positive T cells with SK-OV-3 cells 5:1 [1] [nM] | EC50 [2] [nM] | fold hindrance of binding by XTEN864 (against the protease-treated ProTIA) [2] [fold] | EC50 [3] [nM] | fold hindrance of binding by XTEN864 (against the cleaved and released anti-CD3scFv portion) [3] [fold] | Kd [4] [nM] | Kd [5] [nM] | EC50 (pM), caspase 3/7 cytotoxicity, PBMC with HCT-116 cells 10:1 [6] [pM] | EC50 (pM), caspase 3/7 cytotoxicity, PBMC with HPAF-II cells 10:1 [6] [pM] | EC50 (pM), caspase 3/7 cytotoxicity, PBMC with MDA-MB-231 cells 10:1 [6] [pM] | EC50 [7] [mg/L] | fold more active binding than the non-cleavable AC1484 [7] [fold]
AC1476 aEpCAM-aCD3-BSRS1-XTEN_AE864-His(6), protease-untreated (uncleaved) anti-EpCAM×anti-CD3 ProTIA (bispecific antibody, Single chain: anti-EpCAM scFv, anti-CD3 scFv, release segment BSRS-1, XTEN864, His6; also called ProTIA-X) DIQMTQSPSSLSASVGDRVTITCRSTKSLLHSNGITYLYWYQQKPGKAPKLLIYQMSNLASGVPSRFSSSGSGTDFTLTISSLQPEDFATYYCAQNLEIPRTFGQGTKVEIKGATPPETGAETESPGETTGGSAESEPPGEGQVQLVQSGPGLVQPGGSVRISCAASGYTFTNYGMNWVKQAPGKGLEWMGWINTYTGESTYADSFKGRFTFSLDTSASAAYLQINSLRAEDTAVYYCARFAIKGDYWGQGTLLTVSSGGGGSDIQMTQSPSSLSASVGDRVTITCRASQDIRNYLNWYQQKPGKAPKLLIYYTSRLESGVPSRFSGSGSGTDYTLTISSLQPEDFATYYCQQGNTLPWTFGQGTKVEIKGATPPETGAETESPGETTGGSAESEPPGEGEVQLVESGGGLVQPGGSLRLSCAASGYSFTGYTMNWVRQAPGKGLEWVALINPYKGVSTYNQKFKDRFTISVDKSKNTAYLQMNSLRAEDTAVYYCARSGYYGDSDWYFDVWGQGTLVTVSSGTAEAASASGLSGRSDNHSPLGLAGSPGSPAGSPTSTEEGTSESATPESGPGTSTEPSEGSAPGSPAGSPTSTEEGTSTEPSEGSAPGTSTEPSEGSAPGTSESATPESGPGSEPATSGSETPGSEPATSGSETPGSPAGSPTSTEEGTSESATPESGPGTSTEPSEGSAPGTSTEPSEGSAPGSPAGSPTSTEEGTSTEPSEGSAPGTSTEPSEGSAPGTSESATPESGPGTSTEPSEGSAPGTSESATPESGPGSEPATSGSETPGTSTEPSEGSAPGTSTEPSEGSAPGTSESATPESGPGTSESATPESGPGSPAGSPTSTEEGTSESATPESGPGSEPATSGSETPGTSESATPESGPGTSTEPSEGSAPGTSTEPSEGSAPGTSTEPSEGSAPGTSTEPSEGSAPGTSTEPSEGSAPGTSTEPSEGSAPGSPAGSPTSTEEGTSTEPSEGSAPGTSESATPESGPGSEPATSGSETPGTSESATPESGPGSEPATSGSETPGTSESATPESGPGTSTEPSEGSAPGTSESATPESGPGSPAGSPTSTEEGSPAGSPTSTEEGSPAGSPTSTEEGTSESATPESGPGTSTEPSEGSAPGTSESATPESGPGSEPATSGSETPGTSESATPESGPGSEPATSGSETPGTSESATPESGPGTSTEPSEGSAPGSPAGSPTSTEEGTSESATPESGPGSEPATSGSETPGTSESATPESGPGSPAGSPTSTEEGSPAGSPTSTEEGTSTEPSEGSAPGTSESATPESGPGTSESATPESGPGTSESATPESGPGSEPATSGSETPGSEPATSGSETPGSPAGSPTSTEEGTSTEPSEGSAPGTSTEPSEGSAPGSEPATSGSETPGTSESATPESGPGTSTEPSEGSAPGHHHHHH | 0.0007 | 0.134 | 0.28 | ≥ 2.3 | 1.8 | 5.8 | 15.3 | 11.4 |  |  |  |  | 
AC1693 protease-untreated anti-EpCAM×anti-CD3 ProTIA (bispecific antibody) DIQMTQSPSSLSASVGDRVTITCRSTKSLLHSNGITYLYWYQQKPGKAPKLLIYQMSNLASGVPSRFSSSGSGTDFTLTISSLQPEDFATYYCAQNLEIPRTFGQGTKVEIKGATPPETGAETESPGETTGGSAESEPPGEGQVQLVQSGPGLVQPGGSVRISCAASGYTFTNYGMNWVKQAPGKGLEWMGWINTYTGESTYADSFKGRFTFSLDTSASAAYLQINSLRAEDTAVYYCARFAIKGDYWGQGTLLTVSSGGGGSDIQMTQSPSSLSASVGDRVTITCRASQDIRNYLNWYQQKPGKAPKLLIYYTSRLESGVPSRFSGSGSGTDYTLTISSLQPEDFATYYCQQGNTLPWTFGQGTKVEIKGATPPETGAETESPGETTGGSAESEPPGEGEVQLVESGGGLVQPGGSLRLSCAASGYSFTGYTMNWVRQAPGKGLEWVALINPYKGVSTYNQKFKDRFTISVDKSKNTAYLQMNSLRAEDTAVYYCARSGYYGDSDWYFDVWGQGTLVTVSSGTAEAASASGESGRAANHTGAPPGGLTGPPGSPAGSPTSTEEGTSESATPESGPGTSTEPSEGSAPGSPAGSPTSTEEGTSTEPSEGSAPGTSTEPSEGSAPGTSESATPESGPGSEPATSGSETPGSEPATSGSETPGSPAGSPTSTEEGTSESATPESGPGTSTEPSEGSAPGTSTEPSEGSAPGSPAGSPTSTEEGTSTEPSEGSAPGTSTEPSEGSAPGTSESATPESGPGTSTEPSEGSAPGTSESATPESGPGSEPATSGSETPGTSTEPSEGSAPGTSTEPSEGSAPGTSESATPESGPGTSESATPESGPGSPAGSPTSTEEGTSESATPESGPGSEPATSGSETPGTSESATPESGPGTSTEPSEGSAPGTSTEPSEGSAPGTSTEPSEGSAPGTSTEPSEGSAPGTSTEPSEGSAPGTSTEPSEGSAPGSPAGSPTSTEEGTSTEPSEGSAPGTSESATPESGPGSEPATSGSETPGTSESATPESGPGSEPATSGSETPGTSESATPESGPGTSTEPSEGSAPGTSESATPESGPGSPAGSPTSTEEGSPAGSPTSTEEGSPAGSPTSTEEGTSESATPESGPGTSTEPSEGSAPGTSESATPESGPGSEPATSGSETPGTSESATPESGPGSEPATSGSETPGTSESATPESGPGTSTEPSEGSAPGSPAGSPTSTEEGTSESATPESGPGSEPATSGSETPGTSESATPESGPGSPAGSPTSTEEGSPAGSPTSTEEGTSTEPSEGSAPGTSESATPESGPGTSESATPESGPGTSESATPESGPGSEPATSGSETPGSEPATSGSETPGSPAGSPTSTEEGTSTEPSEGSAPGTSTEPSEGSAPGSEPATSGSETPGTSESATPESGPGTSTEPSEGSAPGHHHHHH |  |  |  |  |  |  |  |  | 21 | 12 | 3480 | 0.009 | 3
AC1484 non-cleavable anti-EpCAM×anti-CD3 ProTIA (ProTIA without the release segment cleavage sequence) (bispecific antibody, Single chain: anti-EpCAM scFv, anti-CD3 scFv, XTEN864, His6, no release segment; also called non-cleavable ProTIA; protease-non-cleavable anti-EpCAM×anti-CD3 ProTIA) DIQMTQSPSSLSASVGDRVTITCRSTKSLLHSNGITYLYWYQQKPGKAPKLLIYQMSNLASGVPSRFSSSGSGTDFTLTISSLQPEDFATYYCAQNLEIPRTFGQGTKVEIKGATPPETGAETESPGETTGGSAESEPPGEGQVQLVQSGPGLVQPGGSVRISCAASGYTFTNYGMNWVKQAPGKGLEWMGWINTYTGESTYADSFKGRFTFSLDTSASAAYLQINSLRAEDTAVYYCARFAIKGDYWGQGTLLTVSSGGGGSDIQMTQSPSSLSASVGDRVTITCRASQDIRNYLNWYQQKPGKAPKLLIYYTSRLESGVPSRFSGSGSGTDYTLTISSLQPEDFATYYCQQGNTLPWTFGQGTKVEIKGATPPETGAETESPGETTGGSAESEPPGEGEVQLVESGGGLVQPGGSLRLSCAASGYSFTGYTMNWVRQAPGKGLEWVALINPYKGVSTYNQKFKDRFTISVDKSKNTAYLQMNSLRAEDTAVYYCARSGYYGDSDWYFDVWGQGTLVTVSSGSPGSPAGSPTSTEEGTSESATPESGPGTSTEPSEGSAPGSPAGSPTSTEEGTSTEPSEGSAPGTSTEPSEGSAPGTSESATPESGPGSEPATSGSETPGSEPATSGSETPGSPAGSPTSTEEGTSESATPESGPGTSTEPSEGSAPGTSTEPSEGSAPGSPAGSPTSTEEGTSTEPSEGSAPGTSTEPSEGSAPGTSESATPESGPGTSTEPSEGSAPGTSESATPESGPGSEPATSGSETPGTSTEPSEGSAPGTSTEPSEGSAPGTSESATPESGPGTSESATPESGPGSPAGSPTSTEEGTSESATPESGPGSEPATSGSETPGTSESATPESGPGTSTEPSEGSAPGTSTEPSEGSAPGTSTEPSEGSAPGTSTEPSEGSAPGTSTEPSEGSAPGTSTEPSEGSAPGSPAGSPTSTEEGTSTEPSEGSAPGTSESATPESGPGSEPATSGSETPGTSESATPESGPGSEPATSGSETPGTSESATPESGPGTSTEPSEGSAPGTSESATPESGPGSPAGSPTSTEEGSPAGSPTSTEEGSPAGSPTSTEEGTSESATPESGPGTSTEPSEGSAPGTSESATPESGPGSEPATSGSETPGTSESATPESGPGSEPATSGSETPGTSESATPESGPGTSTEPSEGSAPGSPAGSPTSTEEGTSESATPESGPGSEPATSGSETPGTSESATPESGPGSPAGSPTSTEEGSPAGSPTSTEEGTSTEPSEGSAPGTSESATPESGPGTSESATPESGPGTSESATPESGPGSEPATSGSETPGSEPATSGSETPGSPAGSPTSTEEGTSTEPSEGSAPGTSTEPSEGSAPGSEPATSGSETPGTSESATPESGPGTSTEPSEGSAPGHHHHHH | 0.086 | 2.66 | 0.32 |  | 2.2 |  | 27.8 | 10 | 1270 | 1170 | 10200 | 0.027 | 
